Measurements as given in US20140294898A1 (published 2014).

B1: Compound No. 71 (peptide)
peptide: FFXGDVFYGWYLCG
HELM: PEPTIDE1{[O=C(C[*:3])[*:2]].F.[meF].[CCCC[C@@H](C(=O)[*:2])N(C)[*:1]].[Sar].D.V.[meF].Y.[Sar].W.Y.L.C.G.[am]}$PEPTIDE1,PEPTIDE1,1:R3-14:R3$$$V2.0
SMILES: CCCC[C@H]1C(=O)N(C)CC(=O)N[C@@H](CC(=O)O)C(=O)N[C@@H](C(C)C)C(=O)N(C)[C@@H](Cc2ccccc2)C(=O)N[C@@H](Cc2ccc(O)cc2)C(=O)N(C)CC(=O)N[C@@H](Cc2c[nH]c3ccccc23)C(=O)N[C@@H](Cc2ccc(O)cc2)C(=O)N[C@@H](CC(C)C)C(=O)N[C@H](C(=O)NCC(N)=O)CSCC(=O)N[C@@H](Cc2ccccc2)C(=O)N(C)[C@@H](Cc2ccccc2)C(=O)N1C
notes: Macrocyclic peptide of the Formula II series; X = norleucine backbone (N-methylated)
B2: Compound No. 80 (peptide)
peptide: FFXGDAFYGWYLCG
HELM: PEPTIDE1{[O=C(C[*:3])[*:2]].F.[meF].[CCCC[C@@H](C(=O)[*:2])N(C)[*:1]].[Sar].D.A.[meF].Y.[Sar].W.Y.L.C.G.[am]}$PEPTIDE1,PEPTIDE1,1:R3-14:R3$$$V2.0
SMILES: CCCC[C@H]1C(=O)N(C)CC(=O)N[C@@H](CC(=O)O)C(=O)N[C@@H](C)C(=O)N(C)[C@@H](Cc2ccccc2)C(=O)N[C@@H](Cc2ccc(O)cc2)C(=O)N(C)CC(=O)N[C@@H](Cc2c[nH]c3ccccc23)C(=O)N[C@@H](Cc2ccc(O)cc2)C(=O)N[C@@H](CC(C)C)C(=O)N[C@H](C(=O)NCC(N)=O)CSCC(=O)N[C@@H](Cc2ccccc2)C(=O)N(C)[C@@H](Cc2ccccc2)C(=O)N1C
notes: Variant of Compound No. 71: Val6 to Ala
B3: Compound No. 86 (peptide)
peptide: FFXGDVFYGWALCG
HELM: PEPTIDE1{[O=C(C[*:3])[*:2]].F.[meF].[CCCC[C@@H](C(=O)[*:2])N(C)[*:1]].[Sar].D.V.[meF].Y.[Sar].W.A.L.C.G.[am]}$PEPTIDE1,PEPTIDE1,1:R3-14:R3$$$V2.0
SMILES: CCCC[C@H]1C(=O)N(C)CC(=O)N[C@@H](CC(=O)O)C(=O)N[C@@H](C(C)C)C(=O)N(C)[C@@H](Cc2ccccc2)C(=O)N[C@@H](Cc2ccc(O)cc2)C(=O)N(C)CC(=O)N[C@@H](Cc2c[nH]c3ccccc23)C(=O)N[C@@H](C)C(=O)N[C@@H](CC(C)C)C(=O)N[C@H](C(=O)NCC(N)=O)CSCC(=O)N[C@@H](Cc2ccccc2)C(=O)N(C)[C@@H](Cc2ccccc2)C(=O)N1C
notes: macrocyclic peptide cyclized via the ClAc moiety with the downstream cysteine; variant of Compound No. 71 (Ala at 11)
B4: Compound No. 87 (peptide)
peptide: FFXGDVFYGWYACG
HELM: PEPTIDE1{[O=C(C[*:3])[*:2]].F.[meF].[CCCC[C@@H](C(=O)[*:2])N(C)[*:1]].[Sar].D.V.[meF].Y.[Sar].W.Y.A.C.G.[am]}$PEPTIDE1,PEPTIDE1,1:R3-14:R3$$$V2.0
SMILES: CCCC[C@H]1C(=O)N(C)CC(=O)N[C@@H](CC(=O)O)C(=O)N[C@@H](C(C)C)C(=O)N(C)[C@@H](Cc2ccccc2)C(=O)N[C@@H](Cc2ccc(O)cc2)C(=O)N(C)CC(=O)N[C@@H](Cc2c[nH]c3ccccc23)C(=O)N[C@@H](Cc2ccc(O)cc2)C(=O)N[C@@H](C)C(=O)N[C@H](C(=O)NCC(N)=O)CSCC(=O)N[C@@H](Cc2ccccc2)C(=O)N(C)[C@@H](Cc2ccccc2)C(=O)N1C
notes: macrocyclic peptide cyclized via the ClAc moiety with the downstream cysteine; variant of Compound No. 71 (Ala at 12)
B5: Compound No. 85 (peptide)
peptide: FFXGDVFYGWYLCG
HELM: PEPTIDE1{[O=C(C[*:3])[*:2]].F.[meF].[CCCC[C@@H](C(=O)[*:2])N(C)[*:1]].[Sar].D.V.[meF].Y.G.W.Y.L.C.G.[am]}$PEPTIDE1,PEPTIDE1,1:R3-14:R3$$$V2.0
SMILES: CCCC[C@H]1C(=O)N(C)CC(=O)N[C@@H](CC(=O)O)C(=O)N[C@@H](C(C)C)C(=O)N(C)[C@@H](Cc2ccccc2)C(=O)N[C@@H](Cc2ccc(O)cc2)C(=O)NCC(=O)N[C@@H](Cc2c[nH]c3ccccc23)C(=O)N[C@@H](Cc2ccc(O)cc2)C(=O)N[C@@H](CC(C)C)C(=O)N[C@H](C(=O)NCC(N)=O)CSCC(=O)N[C@@H](Cc2ccccc2)C(=O)N(C)[C@@H](Cc2ccccc2)C(=O)N1C
notes: macrocyclic peptide cyclized via the ClAc moiety with the downstream cysteine; variant of Compound No. 71 (Gly instead of Sar at 9)

Columns and labels:
[1] = molecular target: T1, human PD-L1 (human, UniProt Q9NZQ7 19-239, limits assumed); experiment: cell binding assay, inhibition of human PD-L1/PD-1 binding (cell format not given)
T1 construct: also called Hu PD-L1; hPD-L1
T1 sequence (Q9NZQ7 19-239 limits assumed): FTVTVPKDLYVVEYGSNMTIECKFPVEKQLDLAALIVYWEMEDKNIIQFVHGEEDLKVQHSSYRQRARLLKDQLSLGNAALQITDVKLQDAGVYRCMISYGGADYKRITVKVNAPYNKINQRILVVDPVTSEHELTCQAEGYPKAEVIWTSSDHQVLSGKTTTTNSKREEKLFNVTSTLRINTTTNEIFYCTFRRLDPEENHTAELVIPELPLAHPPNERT

[2] = molecular target: T2, hPDL1(19-239)-TVMV-His (human, UniProt Q9NZQ7 19-239); experiment: HTRF competition, PD-1-Ig (20 nM) binding to human PD-L1-His (10 nM)
T2 construct: The construct name says 19-239, the running text says amino acids 18-239; Expressed in HEK293T cells; also called PD-L1-His; PD-L1-TVMV-His
T2 sequence (Q9NZQ7 other isoform, or with tags, fused parts or gaps limits assumed): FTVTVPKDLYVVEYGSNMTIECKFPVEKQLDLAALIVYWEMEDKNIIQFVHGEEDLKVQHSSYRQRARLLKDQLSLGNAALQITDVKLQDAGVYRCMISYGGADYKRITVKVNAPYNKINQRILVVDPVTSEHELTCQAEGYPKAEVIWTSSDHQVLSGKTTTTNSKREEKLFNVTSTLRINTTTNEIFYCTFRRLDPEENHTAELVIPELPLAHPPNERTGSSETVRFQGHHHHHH
Procedure: All binding studies were performed in an HTRF assay buffer consisting of dPBS supplemented with 0.1% (w/v) bovine serum albumin and 0.05% (v/v) Tween-20. […] PD-L1 fusion proteins from either human, cynomologous macaques, or mouse were used. HTRF detection was achieved using europium crypate-labeled anti-Ig monoclonal antibody (1 nM final) and allophycocyanin (APC) labeled anti-His monoclonal antibody (20 nM final). Antibodies were diluted in HTRF detection buffer and 5 μl was dispensed on top of binding reaction. The reaction was allowed to equilibrate for 30 minutes and signal (665 nm/620 nm ratio) was obtained using an EnVision fluorometer. […]
HTRF experiments were performed essentially as outlined supra. Variant macrocyclic peptides were created as outlined herein.

| Binder | IC50 [1] [nM] | IC50 [2] [nM] |
| --- | --- | --- |
| B1 | 10 |  |
| B2 | 723 |  |
| B3 |  | 820 |
| B4 |  | 25 |
| B5 |  | 191 |
